Data reported in patent EP1758924B1 (Council of Scientific and Industrial Research, dated 2005).

Target: T1, Hsp16.3 (16 kDa alpha-crystallin like heat-shock protein of Mycobacterium tuberculosis), recombinant, 6 X His … (Mycobacterium tuberculosis)
T1 construct: also called M. tuberculosis Acr (Hsp16.3) protein
Test: reverse phage ELISA on coated Hsp16.3, anti-M13-HRP, A405

B1: phage clone displaying peptide sequence Seq ID 21 (Tyr-Pro-His-His-Phe-Lys-His-Arg-His-Ile-Pro-Ile), from the Ph.D.-12 library on bacteriophage M13 (peptide)
peptide: YPHHFKHRHIPI
notes: Tested as whole phage in the reverse phage ELISA; not shown: fused to an M13 coat protein (spacer Gly-Gly-Gly-Ser is named)
- fold binding over BSA background: ~3 fold
